Results: patent US11278600B2, “Human alpha-galactosidase variants” (Codexis, Inc., priority 2014, dated 2022)

How the values were obtained:
Format in all cases: biochemical
Settings in all cases: activity of the variant/activity of WT GLA (SEQ ID NO: 5), yeast supernatant
[1] = HTP-analysis of yeast culture supernatants, no challenge (MUGal hydrolysis)
Summary of the method: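 GLA variants expressed in yeast INVSc1, secreted into SD-Ura broth over 66-84 h at 30° C; clarified supernatants tested without challenge. Supernatant mixed with McIlvaine buffer pH 4.8 and 2 mM MUGal (citrate/KCl, pH 4.6), 37° C for 30-180 min, carbonate-quenched, fluorescence Ex 355/Em 448 nm.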

[2] = HTP-analysis of supernatants pretreated with acid (MUGal hydrolysis)
Summary of the method: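 Fluorescence of MUGal hydrolysis (Ex. 355 nm, Em. 448 nm) is read after sodium carbonate quench. The enzyme source is INVSc1 yeast culture supernatant, first exposed to pH 3.3-4.3 McIlvaine buffer at 37° C. for 1-3 h, then reacted at pH 4.8 for 30-180 minutes.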

[3] = HTP-analysis of supernatants pretreated with base (MUGal hydrolysis)
Summary of the method: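 Supernatants from INVSc1 yeast expressing GLA variants (SD-Ura, 66-84 h, 30° C) were mixed with McIlvaine buffer pH 7.0-8.2 or 200 mM sodium bicarbonate pH 9.1-9.7 and held 1-18 h at 37° C. Residual activity was then measured on MUGal at pH 4.8/4.3, 37° C, 30-180 min, by fluorescence (Ex 355/Em 448 nm).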

Molecule | Relative Activity of GLA Variants After No Challenge (NC) [1] | Relative Activity of GLA Variants After Challenge at pH 4.3 [2] | Relative Activity of GLA Variants After Challenge at pH 7.0 [3] | Relative Activity of GLA Variants After Challenge at pH 4.2 [2] | Relative Activity of GLA Variants After Challenge at pH 7.1 [3]
32 (protein, Synthetic Polypeptide sequence of Variant No. 32 of mature Human GLA) LDNGLARTPTMGWLHWERFMCNLDCQEEPDSCISEKLFMEMAELMVSEGWKDAGYEYLCIDDCWMAPQRDSEGRLQADPQRFPHGIRQLANYVHSKGLKLGIYADVGNKTCAGFPGSFGYYDIDAQTFADWGVDLLKFDGCYCDSLENLADGYKHMSLALNRTGRSIVYSCEWPLYMWPFQKPNYTEIRQYCNHWRNFADIDDSWKSIKSILDWTSFNQERIVDVAGPGGWNDPDMLVIGNFGLSWNQQVTQMALWAIMAAPLFMSNDLRHISPQAKALLQDKDVIAINQDPLGKQGYQLRQGDNFEVWERPLSGLAWAVAMINRQEIGGPRSYTIAVASLGKGVACNPACFITQLLPVKRKLGFYEWTSRLKSHVNPTGTVLLQLENTMQMSLKDLLL | + (+ = 0.5 to 1.5 relative activity over WT GLA (SEQ ID NO: 5)) | ++ (++ = >1.5 to 2.5 relative activity over WT GLA (SEQ ID NO: 5)) | + (+ = 0.5 to 1.5 relative activity over WT GLA (SEQ ID NO: 5)) |  | 
1 (protein, Synthetic Polypeptide sequence of Variant No. 1 of mature Human GLA) LDNGLARTPTMGWLHWERFMCNLDCQEEPDSCISEKLFMEMAELMVSEGWKDAGYEYLCIDDCWMAPQRDSEGRLQADPQRFPHGIRQLANYVHSKGLKLGIYADVGNKTCAGFPGSFGYYDIDAQTFADWGVDLLKFDGCYCDSLENLADGYKHMSLALNRTGRSIVYSCEWPLYMWPFQKPNYTEIRQYCNHWRNFADIDDSWKSIKSILDWTSFNQERIVDVAGPGGWNDPDMLVIGNFGLSWNQQVTQMALWAIMAAPLFMSNDLRHISPQAKALLQDKDVIAINQDPLGKQGYQLRQGDNFEVWERPLSGLAWAVAMINRQEIGGPRSYTISVASLGKGVACNPACFITQLLPVKRKLGFYEWTSRLRSHINPTGTVLLQLENTMQMSLKDLL | + (+ = 0.5 to 1.5 relative activity over WT GLA (SEQ ID NO: 5)) | + (+ = 0.5 to 1.5 relative activity over WT GLA (SEQ ID NO: 5)) | + (+ = 0.5 to 1.5 relative activity over WT GLA (SEQ ID NO: 5)) |  | 
123 (protein, Synthetic Polypeptide sequence of Variant No. 123 of mature Human GLA) LDNGLARTPTMGWLHWERFDCNLDCQEEPDSCISEKLFMEMAELMVSEGWKDAGYEYLCIDDCWMAPQRDSEGRLQADPQRFPHGIRQLANYVHSKGLKLGIYADVGNKTCAGFPGSFGYYDIDAQTFADWGVDLLKFDGCYCDSLENLADGYKHMSLALNRTGRSIVYSCEWPLYMWPFQKPNYTEIRQYCNHWRNFADIDDSWKSIKSILDWTSFNQERIVDVAGPGGWNDPDMLVIGNFGLSWNQQVTQMALWAIMAAPLFMSNDLRHISPQAKALLQDKDVIAINQDPLGKQGYQLRKGDNFEVWERPLSGLAWAVAMINRQEIGGPRSYTIAVASLGKGVACNPACFITQLLPVKRKLGFYEWTSRLRSHINPTGTVLLQLENTMQMSKDLLL | − (− = <0.5 relative activity to WT GLA (SEQ ID NO: 5)) |  |  | + (+ = 0.5 to 1.5 relative activity over WT GLA (SEQ ID NO: 5)) | − (− = <0.5 relative activity to WT GLA (SEQ ID NO: 5))
2 (protein, Synthetic Polypeptide sequence of Variant No. 2 of mature Human GLA) LDNGLARTPTMGWLHWERFMCNLDCQEEPDSCISEKLFMEMADLMVSEGWKDAGYEYLCIDDCWMAPQRDSEGRLQADPQRFPHGIRQLANYVHSKGLKLGIYADVGNKTCAGFPGSFGYYDIDAQTFADWGVDLLKFDGCYCDSLENLADGYKHMSLALNRTGRSIVYSCEWPLYMWPFQKPNYTEIRQYCNHWRNFADIDDSWKSIKSILDWTSFNQERIVDVAGPGGWNDPDMLVIGNFGLSWNQQVTQMALWAIMAAPLFMSNDLRHISPQAKALLQDKDVIAINQDPLGKQGYQLRQGDNFEVWERPLSGLAWAVAMINRQEIGGPRSYTIAVASLGKGVACNPACFITQLLPVKRKLGFYEWTSRLRSHINPTGTVLLQLENTMQMSLKDLL | + (+ = 0.5 to 1.5 relative activity over WT GLA (SEQ ID NO: 5)) | + (+ = 0.5 to 1.5 relative activity over WT GLA (SEQ ID NO: 5)) | + (+ = 0.5 to 1.5 relative activity over WT GLA (SEQ ID NO: 5)) |  | 
126 (protein, Synthetic Polypeptide sequence of Variant No. 126 of mature Human GLA) LDNGLARTPTMGWLHWERFMCNLDCQEEPDSCISEKLFMEMAELMVSEGWKDAGYEYLCIDDCWMAPQRDSEGRLQADPQRFPHGIRQLANYVHSKGLKLGIYADVGNKTCAGFPGSFGYYDIDAQTFADWGVDLLKFDGCYCDSLENLADGYKHMSLALNRTGRSIVYSCEWPLYMWPFQKPNYTEIRQYCNHWRNFADIDDSWKSIKSILDWTSFNQERIVDVAGPGGWNDPDMLVIGNFGLSWNQQVTQMALWAIMAAPLFMSNDLRHISPQAKALLQDKDVIAINQDPLGKQGYQLRQGDNFEVWERPLSGLAWAVAMINRQEIGGPRSYTIAVASLGKGVACNPACFITQLLPVKRKLGFYEWTSRLRSHINPTGTVLLQLENTDQMSKDLLL | +++ (+++ = >2.5 relative activity over WT GLA (SEQ ID NO: 5)) |  |  | +++ (+++ = >2.5 relative activity over WT GLA (SEQ ID NO: 5)) | +++ (+++ = >2.5 relative activity over WT GLA (SEQ ID NO: 5))
127 (protein, Synthetic Polypeptide sequence of Variant No. 127 of mature Human GLA) LDNGLARTPTMGWLHWERFMCNLDCQEEPDSCISEKLFMEMAELMVSEGWKDAGYEYLCIDDCWMAPQRDSEGRLQADPQRFPHGIRQLANYVHSKGLKLGIYADVGNKTCAGFPGSFGYYDIDAQTFADWGVDLLKFDGCYCDSLENLADGYKHMSLALNRTGRSIVYSCEWPLYMWPFQKPNYTEIRQYCNHWRNFADIDDSWKSIKSILDWTSFNQERIVDVAGPGGWNDPDMLVIGNFGLSWNQQVTQMALWAIMAAPLFMSNDLRHISPQAKALLQDKDVIAINQDPLGKQGYQLRQGDNFEVWERPLSGLAWAVAMINRQEIGGPRSYTIAVASLGKGVACNPACFITQLLPVKRKLGFYEWTSRLRSHINPTGTVLLQLENTRQMSKDLLL | ++ (++ = >1.5 to 2.5 relative activity over WT GLA (SEQ ID NO: 5)) |  |  | ++ (++ = >1.5 to 2.5 relative activity over WT GLA (SEQ ID NO: 5)) | ++ (++ = >1.5 to 2.5 relative activity over WT GLA (SEQ ID NO: 5))
125 (protein, Synthetic Polypeptide sequence of Variant No. 125 of mature Human GLA) LDNGLARTPTMGWLHWERFMCNLDCQEEPDSCISEKLFMEMAELMVSEGWKDAGYEYLCIDDCWMAPQRDSEGRLQADPQRFPHGIRQLANYVHSKGLKLGIYADVGNKTCAGFPGSFGYYDIDAQTFADWGVDLLKFDGCYCDSLENLADGYKHMSLALNRTGRSIVYSCEWPLYMWPFQKPNYTEIRQYCNHWRNFADIDDSWKSIKSILDWTSFNQERIVDVAGPGGWNDPDMLVIGNFGLSWNQQVTQMALWAIMAAPLFMSNDLRHISPQAKALLQDKDVIAINQDPLGKQGYQLRQGDNFEVWERPLSGLAWAVAIINRQEIGGPRSYTIAVASLGKGVACNPACFITQLLPVKRKLGFYEWTSRLRSHINPTGTVLLQLENTMQMSKDLLL | + (+ = 0.5 to 1.5 relative activity over WT GLA (SEQ ID NO: 5)) |  |  | + (+ = 0.5 to 1.5 relative activity over WT GLA (SEQ ID NO: 5)) | + (+ = 0.5 to 1.5 relative activity over WT GLA (SEQ ID NO: 5))
124 (protein, Synthetic Polypeptide sequence of Variant No. 124 of mature Human GLA) LDNGLARTPTMGWLHWERFMCNLDCQEEPDSCISEKLFMEMAELMVSEGWKDAGYEYLCIDDCWMAPQRDSEGRLQADPQRFPHGIRQLANYVHSKGLKLGIYADVGNKTCAGFPGSFGYYDIDAQTFADWGVDLLKFDGCYCDSLENLADGYKHMSLALNRTGRSIVYSCEWPLYMWPFQKPNYTEIRQYCNHWRNFADIDDSWKSIKSILDWTSFNQERIVDVAGPGGWNDPDMLVIGNFGLSWNQQVTQFALWAIMAAPLFMSNDLRHISPQAKALLQDKDVIAINQDPLGKQGYQLRQGDNFEVWERPLSGLAWAVAMINRQEIGGPRSYTIAVASLGKGVACNPACFITQLLPVKRKLGFYEWTSRLRSHINPTGTVLLQLENTMQMSKDLLL | ++ (++ = >1.5 to 2.5 relative activity over WT GLA (SEQ ID NO: 5)) |  |  | ++ (++ = >1.5 to 2.5 relative activity over WT GLA (SEQ ID NO: 5)) | + (+ = 0.5 to 1.5 relative activity over WT GLA (SEQ ID NO: 5))
